Source: the RNAGym collection of RNA variant scans (doi:10.7554/elife.80360)

B1: CPEB3 Ribozyme (parent)
chain: GGGGGCCACAGCAGAAGCGUUCACGUCGCGGCCCCUGUCAGAUUCUGGUGAAUCUGCGAAUUCUGCUGU

Variants of: B1
Assay: self-cleavage, relative activity (ratio to wild type); higher = more cleavage; co-transcriptional

In order of rising self-cleavage:
1. GGGGGCCACAGCAGAAGCGUUCACGUCGCGGCCCCUGUUAGAUUCUGGUGAAUCUGCGAUUUCUGCUGU [C39U A60U]  0.266
2. GGGGGCCACAGCAGAAGCGUUCACGUCGCGGCCCCUGUUAGAUUCUGGUGAAUCUGCGACUUCUGCUGU [C39U A60C]  0.341
3. GGGGGCCACAGCAGAAGCGUUCACGUCGCGGCCCCUGUGAGAUUCUGGUGAAUCUGCGAAUUAUGCUGU [C39G C63A]  0.494
4. GGGGGCCACAGCAGAAGCGUUCACGUCGCGGCCCCUGUUAGGUUCUGGUGAAUCUGCGAAUUCUGCUGU [C39U A42G]  0.514
5. GGGGGCCACAGCAGAAGCGUUCACGUCGCGGCCCCUGUUAGAUUCUGGUGAAUAUGCGAAUUCUGCUGU [C39U C54A]  0.526
6. GGGGGCCACAGCAGAAGCGUUCACGUCGCGGCCCCUGUUAGCUUCUGGUGAAUCUGCGAAUUCUGCUGU [C39U A42C]  0.542
7. GGGGGCCACAGCAGAAGCGUUCACGUCGCGGCCCCUGUUAGAUUCUGGUGAAUGUGCGAAUUCUGCUGU [C39U C54G]  0.546
8. GGGGGCCACAGCAGAAGCGUUCACGUCGCGGCCCCUGUGAGAUUCUGGUGAAUAUGCGAAUUCUGCUGU [C39G C54A]  0.561
9. GGGGGCCACAGCAGAAGCGUUCACGUCGCGGCCCCUGUGAGAUCCUGGUGAAUCUGCGAAUUCUGCUGU [C39G U44C]  0.58
10. GGGGGCCACAGCAGAAGCGUUCACGUCGCGGCCCCUGUGAGAUUCUGGUGAAUCUGCGAAUGCUGCUGU [C39G U62G]  0.592
11. GGGGGCCACAGCAGAAGCGUUCACGUCGCGGCCCCUGUGAGAUUCUGGUGAAUCUGCGAAUUCUACUGU [C39G G65A]  0.599
12. GGGGGCCACAGCAGAAGCGUUCACGUCGCGGCCCCUGUGAGAUUCUGGUGAAUGUGCGAAUUCUGCUGU [C39G C54G]  0.625
13. GGGGGCCACAGCAGAAGCGUUCACGUCGCGGCCCCUGUGAGAUUCUGGUGAAUCUGCGAAUUCGGCUGU [C39G U64G]  0.642
14. GGGGGCCACAGCAGAAGCGUUCACGUCGCGGCCCCUGUGAGAUUCUGGUGAAUCUGCGAAUCCUGCUGU [C39G U62C]  0.658
15. GGGGGCCACAGCAGAAGCGUUCACGUCGCGGCCCCUGUUAGAUUCUGGUGAAUCUGCGAGUUCUGCUGU [C39U A60G]  0.667
16. GGGGGCCACAGCAGAAGCGUUCACGUCGCGGCCCCUGUGAGAUGCUGGUGAAUCUGCGAAUUCUGCUGU [C39G U44G]  0.709
17. GGGGGCCACAGCAGAAGCGUUCACGUCGCGGCCCCUGUGAGAUUCUGGUGAAUCUGCGAAUUCCGCUGU [C39G U64C]  0.736
18. GGGGGCCACAGCAGAAGCGUUCACGUCGCGGCCCCUGUGAGAUACUGGUGAAUCUGCGAAUUCUGCUGU [C39G U44A]  0.772
19. GGGGGCCACAGCAGAAGCGUUCACGUCGCGGCCCCUGUUAGAUUCUGGUGACUCUGCGAAUUCUGCUGU [C39U A52C]  0.776
20. GGGGGCCACAGCAGAAGCGUUCACGUCGCGGCCCCUGUUAGAUUCUGGUGAUUCUGCGAAUUCUGCUGU [C39U A52U]  0.78
21. GGGGGCCACAGCAGAAGCGUUCACGUCGCGGCCCCUGUGAGAUUCUGGUGAAUCUGCGAAUACUGCUGU [C39G U62A]  0.788
22. GGGGGCCACAGCAGAAGCGUUCACGUCGCGGCCCCUGUUAGAUUCUGGUGUAUCUGCGAAUUCUGCUGU [C39U A51U]  0.836
23. GGGGGCCACAGCAGAAGCGUUCACGUCGCGGCCCCUGUUAGAUUCUGGUGAAUUUGCGAAUUCUGCUGU [C39U C54U]  0.853
24. GGGGGCCACAGCAGAAGCGUUCACGUCGCGGCCCCUGUUAGAUUUUGGUGAAUCUGCGAAUUCUGCUGU [C39U C45U]  0.862
25. GGGGGCCACAGCAGAAGCGUUCACGUCGCGGCCCCUGUGAGAUUCUGGUGAAUCUGCAAAUUCUGCUGU [C39G G58A]  0.864
26. GGGGGCCACAGCAGAAGCGUUCACGUCGCGGCCCCUGUGAGAUUCUGGUGAAUCUACGAAUUCUGCUGU [C39G G56A]  0.882
27. GGGGGCCACAGCAGAAGCGUUCACGUCGCGGCCCCUGUUAGAUUCUGGUGAAUCUGCGAAUUCUGUUGU [C39U C66U]  0.885
28. GGGGGCCACAGCAGAAGCGUUCACGUCGCGGCCCCUGUGAGAUUCUGGUGAAUUUGCGAAUUCUGCUGU [C39G C54U]  0.888
29. GGGGGCCACAGCAGAAGCGUUCACGUCGCGGCCCCUGUGAGAUUCGGGUGAAUCUGCGAAUUCUGCUGU [C39G U46G]  0.907
30. GGGGGCCACAGCAGAAGCGUUCACGUCGCGGCCCCUGUGAGAUUCUGGUGAAUCUGCGAAUUUUGCUGU [C39G C63U]  0.934
31. GGGGGCCACAGCAGAAGCGUUCACGUCGCGGCCCCUGUGAGAUUCUGGUGAAUCUCCGAAUUCUGCUGU [C39G G56C]  0.938
32. GGGGGCCACAGCAGAAGCGUUCACGUCGCGGCCCCUGUUAGAUUCUGGUGAGUCUGCGAAUUCUGCUGU [C39U A52G]  0.948
33. GGGGGCCACAGCAGAAGCGUUCACGUCGCGGCCCCUGUGAGAUUCUGGUGAAUCUGCGAAUUCUGCUAU [C39G G68A]  0.95
34. GGGGGCCACAGCAGAAGCGUUCACGUCGCGGCCCCUGUGAGAUUCUGGUGAAUCUGCGAAUUCUGCUCU [C39G G68C]  0.955
35. GGGGGCCACAGCAGAAGCGUUCACGUCGCGGCCCCUGUUAGAUUCUGGUGAAUCUGCGGAUUCUGCUGU [C39U A59G]  0.987
36. GGGGGCCACAGCAGAAGCGUUCACGUCGCGGCCCCUGUGAGAUUCAGGUGAAUCUGCGAAUUCUGCUGU [C39G U46A]  0.997
37. GGGGGCCACAGCAGAAGCGUUCACGUCGCGGCCCCUGUGAGAUUCUGGUGAAUCUUCGAAUUCUGCUGU [C39G G56U]  1
38. GGGGGCCACAGCAGAAGCGUUCACGUCGCGGCCCCUGUGAGAUUCUGGUGAAUCUGCUAAUUCUGCUGU [C39G G58U]  1.01
39. GGGGGCCACAGCAGAAGCGUUCACGUCGCGGCCCCUGUGAGAUUCUGGUGAAUCUGCGAAUUCUGCUGC [C39G U69C]  1.05
